Assays:
O83132 = assay: AUC; sedimentation velocity, 50,000 rpm, 20 °C, Working Buffer (20 mM HEPES, 0.1 M NaCl, pH 7.5, 2 mM n-octyl-β-D-glucopyranoside); 10 μM, 31 μM and 100 μM; c(s) analysis; monomer to dimer
[1] = target: the molecule itself; assay: as above

B1: TP0094 (putative phosphotransacetylase, Pta) of Treponema pallidum, wild-type (enzyme, UniProt O83132 1-336, looked up)
chain: MTFVESMQRRAVLAQKRLVLPEACEQRTLEAARLIVFRNIAAKVFLVGCERDIKNTADRCGIDLTDMVVIDPSVSKHRDQFAERYFQKRKHKGISLAQAAEDMRDPLRFAAMMLDQGHADAMVAGAENTTARVLRAGLTIIGTLPSVKTASSCFVMDTNNPRLGGTRGLFIFSDCAVIPTPTAEQLADIACSAAESCRTFIGEEPTVALLSYSTKGSGGDSDENILRVREAVRILHERRVDFTFDGELQLDAALVPKITEKKAPHSPITGKVNTLVFPDLSSGNIGYKLVQRLSDADAYGPFLQGFAKPLSDLSRGCSVEDIVAACAVTLVQSNGR
notes: TP0094, putative phosphotransacetylase (Pta; EC 2.3.1.8) of Treponema pallidum; DNA fragment encoding all amino-acid residues of TP0094; also called TpPta; WT TP0094; source: E. coli BL21 AI (co-transformed with pGroESL), purified
Q: Which results are given for B1?
A: mass purity of the dimer (O83132): we estimate the mass purity of the dimer to range from 95–97%; stoichiometry N [1]: 2

Source: article PMC10194888 (PLOS ONE, 2023)
